Here are results for 6 sequences from the supplement of paper PMC5998384.

The subject of series [1] is HeLa Kyoto. The series can be described thus: melting temperature (median over replicates), in situ; higher = more thermally stable.
Series [2] relates to HeLa Kyoto. The series can be described thus: thermal stability score vs G1/S (z-score of summed log2 fold changes over temperatures); higher = more thermally stable than in G1/S.
For series [3], the system named is HeLa Kyoto. The series can be described thus: solubility in G1/S (NP-40 vs SDS abundance) (log2 ratio); higher = more soluble. As to conditions: cell cycle stage: G1/S.
Series [4] has as its system HeLa Kyoto. Put plainly: solubility change mitosis vs G1/S (difference of NP-40 vs SDS log2 ratios) (log2 ratio difference); higher = more soluble in mitosis.
[5] abbreviates: cell cycle stage: early G1 (4.5 h after nocodazole release).
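Throughout, for melting temperature (median over replicates), in situ: HeLa Kyoto cells synchronized by double thymidine or nocodazole block, proteins quantified by TMT10plex mass spectrometry, three independent biological replicates.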
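Throughout, for solubility change mitosis vs G1/S (difference of NP-40 vs SDS log2 ratios): synchronized HeLa Kyoto cells (double thymidine block for G1/S, nocodazole release for mitosis), protein amounts in NP-40 versus SDS lysates quantified by mass spectrometry, three biological replicates.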
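Throughout, for solubility in G1/S (NP-40 vs SDS abundance): HeLa Kyoto cells arrested at G1/S by double thymidine block, proteins quantified by TMT10plex mass spectrometry in mild NP-40 versus SDS extracts, three biological replicates.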
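Throughout, for thermal stability score vs G1/S (z-score of summed log2 fold changes over temperatures): synchronized HeLa Kyoto cells, proteins quantified by TMT10plex mass spectrometry, three biological replicates, mitosis taken 0.5 h after nocodazole release, G1/S directly after double thymidine block.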

For the sequence “MVKLTAELIEQAAQYTNAVRDRELDLRGYKIPVIENLGATLDQFDAIDFSDNEIRKLDGFPLLRRLKTLLVNNNRICRIGEGLDQALPCLTELILTNNSLVELGDLDPLASLKSLTYLSILRNPVTNKKHYRLYVIYKVPQVRVLDFQKVKLKERQEAEKMFKGKRGAQLAKDIARRSKTFNPGAGLPTDKKKGGPSPGDVEAIKNAIANASTLAEVERLKGLLQSGQIPGRERRSGPTDDGEEEMEEDTVTNGS [SNRPA1]”, the results for the melting temperature in the series with HeLa Kyoto [1] (cell cycle stage: G1/S) and in the series on HeLa Kyoto [1] (cell cycle stage: mitosis) were 54 °C and 54.2 °C, respectively. In addition, the thermal stability score in the series with HeLa Kyoto [2] (setting [5]) was 0.145; in the series with HeLa Kyoto [2] (cell cycle stage: mitosis), -1.77. In the series on HeLa Kyoto [3], the “solubility in G1/S (log2)” value is 0.281. Further, in the series with HeLa Kyoto [4], the “solubility change mitosis (log2)” value was determined as 0.21.

As to “MVKQIESKTAFQEALDAAGDKLVVVDFSATWCGPCKMIKPFFHSLSEKYSNVIFLEVDVDDCQDVASECEVKCMPTFQFFKKGQKVGEFSGANKEKLEATINELV [TXN]”, the melting temperature in the series on HeLa Kyoto [1] (cell cycle stage: G1/S) is 57.3 °C; in the series with HeLa Kyoto [1] (cell cycle stage: mitosis), 58.1 °C. Besides, the thermal stability score was -0.802 in the series with HeLa Kyoto [2] (setting [5]) and -2.72 with HeLa Kyoto [2] (cell cycle stage: mitosis). Moreover, in the series with HeLa Kyoto [3], the “solubility in G1/S (log2)” value was determined as 0.255. The “solubility change mitosis (log2)” value with HeLa Kyoto [4] was -0.04.

With “MVLAELYVSDREGSDATGDGTKEKPFKTGLKALMTVGKEPFPTIYVDSQKENERWNVISKSQLKNIKKMWHREQMKSESREKKEAEDSLRREKNLEEAKKITIKNDPSLPEPKCVKIGALEGYRGQRVKVFGWVHRLRRQGKNLMFLVLRDGTGYLQCVLADELCQCYNGVLLSTESSVAVYGMLNLTPKGKQAPGGHELSCDFWELIGLAPAGGADNLINEESDVDVQLNNRHMMIRGENMSKILKARSMVTRCFRDHFFDRGYYEVTPPTLVQTQVEGGATLFKLDYFGEEAFLTQSSQLYLETCLPALGDVFCIAQSYRAEQSRTRRHLAEYTHVEAECPFLTFDDLLNRLEDLVCDVVDRILKSPAGSIVHELNPNFQPPKRPFKRMNYSDAIVWLKEHDVKKEDGTFYEFGEDIPEAPERLMTDTINEPILLCRFPVEIKSFYMQRCPEDSRLTESVDVLMPNVGEIVGGSMRIFDSEEILAGYKREGIDPTPYYWYTDQRKYGTCPHGGYGLGLERFLTWILNRYHIRDVCLYPRFVQRCTP [NARS]”, the melting temperature with HeLa Kyoto [1] (cell cycle stage: G1/S) was determined as 52.6 °C; in the series on HeLa Kyoto [1] (cell cycle stage: mitosis), 53.1 °C. The thermal stability score is 3.39 in the series on HeLa Kyoto [2] (setting [5]) and 4 in the series on HeLa Kyoto [2] (cell cycle stage: mitosis). The “solubility in G1/S (log2)” value with HeLa Kyoto [3] is -0.0613. The “solubility change mitosis (log2)” value with HeLa Kyoto [4] was -0.124.

Regarding “MVLCPVIGKLLHKRVVLASASPRRQEILSNAGLRFEVVPSKFKEKLDKASFATPYGYAMETAKQKALEVANRLYQKDLRAPDVVIGADTIVTVGGLILEKPVDKQDAYRMLSRLSGREHSVFTGVAIVHCSSKDHQLDTRVSEFYEETKVKFSELSEELLWEYVHSGEPMDKAGGYGIQALGGMLVESVHGDFLNVVGFPLNHFCKQLVKLYYPPRPEDLRRSVKHDSIPAADTFEDLSDVEGGGSEPTQRDAGSRDEKAEAGEAGQATAEAECHRTRETLPPFPTRLLELIEGFMLSKGLLTACKLKVFDLLKDEAPQKAADIASKVDASACGMERLLDICAAMGLLEKTEQGYSNTETANVYLASDGEYSLHGFIMHNNDLTWNLFTYLEFAIREGTNQHHRALGKKAEDLFQDAYYQSPETRLRFMRAMHGMTKLTACQVATAFNLSRFSSACDVGGCTGALARELAREYPRMQVTVFDLPDIIELAAHFQPPGPQAVQIHFAAGDFFRDPLPSAELYVLCRILHDWPDDKVHKLLSRVAESCKPGAGLLLVETLLDEEKRVAQRALMQSLNMLVQTEGKERSLGEYQCLLELHGFHQVQVVHLGGVLDAILATKVAP [ASMTL]”, the values for the melting temperature with HeLa Kyoto [1] (cell cycle stage: G1/S) and in the series on HeLa Kyoto [1] (cell cycle stage: mitosis) were 51.6 °C and 50.8 °C, respectively. The thermal stability score is 0.0527 with HeLa Kyoto [2] (setting [5]) and 0.533 in the series on HeLa Kyoto [2] (cell cycle stage: mitosis). For the same sequence, in the series with HeLa Kyoto [3], the “solubility in G1/S (log2)” value is -0.0739. The “solubility change mitosis (log2)” value in the series on HeLa Kyoto [4] is -0.178.

As for “MVMAAKKGPGPGGGVSGGKAEAEAASEVWCRRVRELGGCSQAGNRHCFECAQRGVTYVDITVGSFVCTTCSGLLRGLNPPHRVKSISMTTFTEPEVVFLQSRGNEVCRKIWLGLFDARTSLVPDSRDPQKVKEFLQEKYEKKRWYVPPDQVKGPTYTKGSASTPVQGSIPEGKPLRTLLGDPAPSLSVAASTSSQPVSQSHARTSQARSTQPPPHSSVKKASTDLLADIGGDPFAAPQMAPAFAAFPAFGGQTPSQGGFANFDAFSSGPSSSVFGSLPPAGQASFQAQPTPAGSSQGTPFGATPLAPASQPNSLADVGSFLGPGVPAAGVPSSLFGMAGQVPPLQSVTMGGGGGSSTGLAFGAFTNPFTAPAAQSPLPSTNPFQPNGLAPGPGFGMSSAGPGFPQAVPPTGAFASSFPAPLFPPQTPLVQQQNGSSFGDLGSAKLGQRPLSQPAGISTNPFMTGPSSSPFASKPPTTNPFL [AGFG2]”, the results for the melting temperature in the series on HeLa Kyoto [1] (cell cycle stage: G1/S) and in the series with HeLa Kyoto [1] (cell cycle stage: mitosis) were 46.6 °C and 47.9 °C, respectively. Moreover, the thermal stability score with HeLa Kyoto [2] (setting [5]) was 0.518; in the series with HeLa Kyoto [2] (cell cycle stage: mitosis) it was 0.826. Also, the “solubility in G1/S (log2)” value in the series on HeLa Kyoto [3] was 0.247. In the series on HeLa Kyoto [4], the “solubility change mitosis (log2)” value was -0.0538.

For the sequence “MVPALRYLVGACGRARGLFAGGSPGACGFASGRPRPLCGGSRSASTSSFDIVIVGGGIVGLASARALILRHPSLSIGVLEKEKDLAVHQTGHNSGVIHSGIYYKPESLKAKLCVQGAALLYEYCQQKGISYKQCGKLIVAVEQEEIPRLQALYEKGLQNGVPGLRLIQQEDIKKKEPYCRGLMAIDCPHTGIVDYRQVALSFAQDFQEAGGSVLTNFEVKGIEMAKESPSRSIDGMQYPIVIKNTKGEEIRCQYVVTCAGLYSDRISELSGCTPDPRIVPFRGDYLLLKPEKCYLVKGNIYPVPDSRFPFLGVHFTPRMDGSIWLGPNAVLAFKREGYRPFDFSATDVMDIIINSGLIKLASQNFSYGVTEMYKACFLGATVKYLQKFIPEITISDILRGPAGVRAQALDRDGNLVEDFVFDAGVGDIGNRILHVRNAPSPAATSSIAISGMIADEVQQRFEL [L2HGDH]”, the melting temperature with HeLa Kyoto [1] (cell cycle stage: G1/S) turned out to be 53.9 °C; in the series with HeLa Kyoto [1] (cell cycle stage: mitosis), 53.6 °C. Besides, the thermal stability score in the series with HeLa Kyoto [2] (setting [5]) worked out at 0.996; in the series on HeLa Kyoto [2] (cell cycle stage: mitosis) it was 0.751. Moreover, the “solubility in G1/S (log2)” value with HeLa Kyoto [3] worked out at 0.0471. For the same sequence, in the series with HeLa Kyoto [4], the “solubility change mitosis (log2)” value is -0.123.
